The nature of this data set: yeast display, Sf9 membrane polyspecificity reagent, FACS + sequencing; frameworks hold sequencing errors. The essentials:
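In a synthetic yeast display library (Saccharomyces cerevisiae BJ5465), nanobody expression was induced with galactose for 36–48 hours. FACS gates were set low and high (top ~1%) using anti-HA fluorescence for expression and streptavidin fluorescence for binding of the Sf9 membrane reagent. Each polyreactivity label is drawn from the gate of origin.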
With “QVQLVESGGGLVQAGGSLRLSCAASGSIFFYYAMGWYRQATGKERELVAAISIAGSTNYADSVKGRFTISRDNAKNTVYLQMNSLKPEDTAVYYCAKEYRWGQSQLDYWGQGTQVTVSS”, the “polyreactivity (PSR sort gate)” value is listed as “low polyreactivity”.
As to “QVQLVESGGGLVQAGGSLRLSCAASGSIFFYYTMGWYRQAPGKERELVAAITWSGGSTYYADSVKGRFTISRDNAKNTVYLQMNSLKPEDTAVYYCAAGTRLYYYRLNYWGQGTQVTVSS”, the “polyreactivity (PSR sort gate)” value is recorded as “high polyreactivity”.
As to “QVQLVESGGGLVQAGGSLRLSCAASGSIFGANAMGWYRQAPGKERELVAAISTRGGRTYYADSVKARFTISRDNAKNTVSLQMNSLKPEDTALYYCAARRFSKVRSMYYWRQGTQVTVSS”, the “polyreactivity (PSR sort gate)” value is recorded as “high polyreactivity”.
With “QVQLVESGGGLVQAGGSLRLSCAASGSIFGAYAMGWYRQAPGKEREFVAAISSRGGNTYYADSVKGRFTISRDNAKNTVYLQMNSLKPEDTAVYYAVFRYHWKYDYWGQGTQVTVSS”, the “polyreactivity (PSR sort gate)” value is listed as “high polyreactivity”.
Regarding “QVQLVESGGGLVQAGGSLRLSCAASGSIFGAYAMGWYRQAPGKERELVAAISSGGSTYADSVKGRFTISRDNAKNTVYLQMNSMKPEDTAVYYCNAVFRARNYHYNPRRFKYYYWGQGTQVSVSS”, the “polyreactivity (PSR sort gate)” value is given as “high polyreactivity”.
Take “QVQLVESGGGLVQAGGSLRLSCAASGSIFGAYTMGWYRQAPGKEREFVAVISKGGTNTYYADSVKGRFTISRDNAKNTVYLQMNSLKPEDTAVYYCAARAYPTWRTYYYWGQGTQVTVSS”: the “polyreactivity (PSR sort gate)” value is “high polyreactivity”.
As to “QVQLVESGGGLVQAGGSLRLSCAASGSIFGDNAMGWYRQAPGKERELVATISSSDASTYYADSVKGRFTISRDNAKNTVYLQMNSLKPEDTSVYYCAAARSGGYDYWGQGTQVTVSS”, the “polyreactivity (PSR sort gate)” value was “low polyreactivity”.
For the sequence “QVQLVESGGGLVQAGGSLRLSCAASGSIFGDYAMGWYRQAPGKERELVAAISRADGTYYADSVKGRFTISRDNAKNTVYLQMNSLKPEDTAVYYCATDYGIRSYYYSWYYVFTADDYWGQGTQVTVSS”, the “polyreactivity (PSR sort gate)” value is on record as “low polyreactivity”.
Then “QVQLVESGGGLVQAGGSLRLSCAASGSIFGDYAMGWYRQAPGTDRELVATITWIGGSTYYADSVKGRFTISRDNAKNTVYCQMNSLKPEDTAVYYCAATKYVDVKYYYWGQGTQVTVSS”, with “low polyreactivity”.
In the case of “QVQLVESGGGLVQAGGSLRLSCAASGSIFGDYDMGWYRQAPGKERELVAAITSGGSTDYADSVKGRFTISRDNAKNTVYLQMNRLKPEDTAVYYCAAEDKCGYFLFPFWLELDYWGQGTQVTVSS” it was “low polyreactivity”; in that of “QVQLVESGGGLVQAGGSLRLSCAASGSIFGFYAMGWYRQAPGKERELVAVISVSDGSTYYADSVKGRFTISRDNAKNTVYLQMNCLKPEDTAVYYCAATPRGSYGYYYWGQGTQVTVSS”, “low polyreactivity”; in that of “QVQLVESGGGLVQAGGSLRLSCAASGSIFGGNAMGWYRQAPGKERELVAAITDGGNTNYADSVKGRFTISRDNAKNTVYLQINSLKPEDTAVYYCAARIPGTYGGRYGYDYWGQGTQVTVSS”, “low polyreactivity”.
Take “QVQLVESGGGLVQAGGSLRLSCAASGSIFGGYAMGGYRQAPGKERELFARITDRGGSTDYADSVKGRFTISRDNAKNTVYLQMNRLKPEDTAVYYCAKRGDRYEKRPRDYWGQGTQVTVSS”: the “polyreactivity (PSR sort gate)” value is “low polyreactivity”.
In the case of “QVQLVESGGGLVQAGGSLRLSCAASGSIFGGYAMGGYRQAPGKERELVAAISWSGDSTYYADSVKGRFTISRDNANNTDYLQMNSLKPEDTAVYYCAAYYLAWYAFRYKTVGSAMDYWGQGTQVTVSS” it was “low polyreactivity”.
In the case of “QVQLVESGGGLVQAGGSLRLSCAASGSIFGGYAMGSYRQAPGKERELVAAISSGGTTNYADSVKGRFTISRDNAKNTVYLQMNSLKPEDTAVYYCAREYGPTYQSVPVKFIQLDYWGQGTQVTVSS”, the “polyreactivity (PSR sort gate)” value was “low polyreactivity”.
Then “QVQLVESGGGLVQAGGSLRLSCAASGSIFGGYAMGWYRQAPGKERELVAAISSGGSTYYADSVKGRFTISRDNAKNTVYLQMNSLKPEDTAVYYCATSTYAYRRNSYYYTRPRFGYWGQGTQVTVSS”, with “high polyreactivity”.
On to “QVQLVESGGGLVQAGGSLRLSCAASGSIFGGYAMGWYRQAPGKERELVAAISYRGASTYYADSVKGRFTISRDNAKNTVYLQMNSLKPEDTAVYYCAVAARTRARVLYGYDYWGQGSQVTVSS”, for which the “polyreactivity (PSR sort gate)” value is “low polyreactivity”.
In the case of “QVQLVESGGGLVQAGGSLRLSCAASGSIFGGYAMGWYRQAPGKERELVAAITWNGGSTYYADSVKGRFTISRDNAKNTVYLQMNSLKPEDTAVYYCAAELPGRDAGRYDYWGQGTQVTVSS” it was “low polyreactivity”; in that of “QVQLVESGGGLVQAGGSLRLSCAASGSIFGGYAMGWYRQAPGKEREWVAAITSSGGRTYYADSVKGRFTISRDNAKNTVYLQMNSLKPEDTAVYYCAARYTRWRYNYKDYDYWGQGTQVTVSS”, “high polyreactivity”; in that of “QVQLVESGGGLVQAGGSLRLSCAASGSIFGGYGMGWYSQAPGKERELVAAITSGSSTYYADSVKGRFTISRDNAKNTVYLLMNSLKPEDTAVYYCAKVSYYPWRYDYWGQGTQVTVTS”, “low polyreactivity”.
On to “QVQLVESGGGLVQAGGSLRLSCAASGSIFGGYTMGWYRPAPGKERELVAAITKNGGRTYYADSVKGRFTISRDTAKPTVYLQMNSLKPEDTAVYYCAAATSPSWYTWVTYDYWGQGTQVTVSS”, for which the “polyreactivity (PSR sort gate)” value was “high polyreactivity”.
Take “QVQLVESGGGLVQAGGSLRLSCAASGSIFGGYTMGWYRQAPGKERELVAGITISGGSTYYADSVKGRFTISRDNAKNTVYLQMNSLKPEDTAVYYCAAVSFVVSSWGYGYWGQGTQVTVSS”: the “polyreactivity (PSR sort gate)” value is listed as “low polyreactivity”.
In the case of “QVQLVESGGGLVQAGGSLRLSCAASGSIFGGYTMGWYRQPPGKERELVATISRRGGRTYYADSVKGRFTISRDNAKNTVYLQMNSLKPEDTAVYYCAARWGRGLEFDYWGQGTQVTVSS” it was “high polyreactivity”; in that of “QVQLVESGGGLVQAGGSLRLSCAASGSIFGHNTMGWYRPAPGKERELVAAITWNGGRTYYADSVKGRFTISRDNAMNTVYLQMNSLKPEDTAVYYCNAVVKTYAYKAHRYPSTRLNYWGQGTQVTVSS”, “high polyreactivity”.
Turning to “QVQLVESGGGLVQAGGSLRLSCAASGSIFGINVMGWYRQAPGKERELVAAITSGTSTYYADSVKGRFTISRDNANNTVYLQMNSLKPEDTAVYYCAALWSSRYVVHPQWYDYWGQGTQVTVSS”, the “polyreactivity (PSR sort gate)” value is recorded as “low polyreactivity”.
Then “QVQLVESGGGLVQAGGSLRLSCAASGSIFGIYAKGWYRQAPGKERELVAAITTTGGTSDYADSVKGRFTISRENAKNTVYVQMKSLKPVDTAVYYCAADAYYYWYYSLDYYYWGQGTQVTVSS”, with “high polyreactivity”; and “QVQLVESGGGLVQAGGSLRLSCAASGSIFGIYAMGWYRPAPGKERELVATINSRGTTNYADSVKGRFTISRDNAKNTVYLQMNSLKPEDTAVYYCAARFSTYRGKRKGYEYWGQGTQVTVSS”, with “high polyreactivity”.
In the case of “QVQLVESGGGLVQAGGSLRLSCAASGSIFGIYAMGWYRQAPGKERELVAAISGSGGDTYYADSVKGRFTISRDNAKNTVYLQMNSLKPEDTAVYYCAATTGAAYPFDYWGQGTQVTVSS” it was “low polyreactivity”; in that of “QVQLVESGGGLVQAGGSLRLSCAASGSIFGKNAMGWYRQAPGKERELVAAITSTGTSTYYADSVKGRFTISRDTAKNTVYLQMNSLKAEDTAVYYCADETARWDYGYWGQGTQVTVSS”, “low polyreactivity”.
Take “QVQLVESGGGLVQAGGSLRLSCAASGSIFGKYAMGWYRQAPGKERELVAAISYSGGSTYYADSVKGRFTISRDNAKNTVYLQMNSLKPEDTAVYYCAVRGWGSAGKYDYWGQGTQVTVSS”: the “polyreactivity (PSR sort gate)” value was “high polyreactivity”.
In the case of “QVQLVESGGGLVQAGGSLRLSCAASGSIFGKYAMGWYRQAPGKERELVATINRGGGGTYYADSVKGRFTISRDNAKNTVYLQMNSLKPEDTAVYYWAVSYRSYVWYGYWGQGTQVTVSS” it was “high polyreactivity”; in that of “QVQLVESGGGLVQAGGSLRLSCAASGSIFGLNAMGWYRQAPGKERELVAAISGGSTNYADSVKGRFTISRDNAKNTVYLQMNSLKPEDTAVYYCAARARRRYYYWGQGTQVTVSS”, “high polyreactivity”; in that of “QVQLVESGGGLVQAGGSLRLSCAASGSIFGLYAMGWYRQAPGKERELVAAINWNGGDTYYADSVKGRFTISRDNAKNTVYLQMNSLKPEDTAVYYCAAELYRYGIRRRHYDYWGQGTLVTVSS”, “low polyreactivity”.
“QVQLVESGGGLVQAGGSLRLSCAASGSIFGLYAMGWYRQAPGKERELVAAISRSGGSTYYADSVKGRFTISRDNAKNTVYLQMYSLKPEDSAVYDCNALRWSQYTYSSRLGHFDSWGQGTQVTVSS”: the “polyreactivity (PSR sort gate)” value is “high polyreactivity”.
Regarding “QVQLVESGGGLVQAGGSLRLSCAASGSIFGLYAMGWYRQAPGKERELVAAISTSSGRTYYADSVKGRFTISRDNAKNTVYLQMNSLKPEDTAVYYCNARVYVTSGFRYDYWGQGTQVTVSS”, the “polyreactivity (PSR sort gate)” value was “high polyreactivity”.
For “QVQLVESGGGLVQAGGSLRLSCAASGSIFGLYAMGWYRQAPGKERELVAAITDSTGSTSYADSVKGRFTISRDNAKNTVYLQMTSLKPEDTAVYYCAAGQGRWRHGFDYWGQGTQVTVSS”, the “polyreactivity (PSR sort gate)” value is on record as “low polyreactivity”.
Then “QVQLVESGGGLVQAGGSLRLSCAASGSIFGNYVMGWYRQSPGKERELVAAISWSGGTNYADSVKGRFTISRDNAKNTVYLQMNSLKPEDTAVYYCATVIRGHKRFAYGYWGQGTQVTVSS”, with “high polyreactivity”; and “QVQLVESGGGLVQAGGSLRLSCAASGSIFGPNAMGRSRQAPGKERELVAAISWVGGSTYYADSVKGRFTISGDIAKNTVYLQMNSLKPEDTAVYYCNASGYHDTALRYDYWGQGTQVTVSS”, with “low polyreactivity”; and “QVQLVESGGGLVQAGGSLRLSCAASGSIFGPNAMGWYRQAPGKERELVAAITLSGGSTYYADSVKGRFTISRDNAKNTVYLQMNSLKPEDTAVYYCNADLLPADAPLWVTGGDYWGQGTQVTVSS”, with “low polyreactivity”.
Consider “QVQLVESGGGLVQAGGSLRLSCAASGSIFGPNAMGWYRQAPGKERELVAAITSGSSTKYADSVKGRFTISRDNATNTVYLQMNSLKPEDTAVYYCAASGTSTWKYGYWGQGSQVTVSS”, for which the “polyreactivity (PSR sort gate)” value is “low polyreactivity”.

(Values after the nanobody polyreactivity screen of Harvey et al. (2022).)
